Measured values taken from article doi:10.1101/2022.05.14.491971.

Target: Mab3862, antitoxin of the type 2 TA class of Mycobacterium abscessus (Mycobacterium abscessus (ATCC 19977))
Assay: crystal structure

Mab3862, antitoxin of the type 2 TA class of Mycobacterium abscessus (natural protein)
stoichiometry N: 2
